From patent publication US20200102373A1 (COLORADO STATE UNIVERSITY RESEARCH FOUNDATION, published 2020)

Legend:
[1] = target: T1, H2B-mCh-TrunTag; assay: live-cell fluorescence imaging of U2OS cells co-expressing the GFP-fused scFv and H2B-mCh-TrunTag; co-localization in the nucleus
T1 construct: not shown: Histone H2B, mCherry and the linkers between the parts
T1 peptide: LPGRWKPKM

[2] = target: T2, H2B-mCh-OrigTag; assay: live-cell fluorescence imaging of U2OS cells co-expressing the GFP-fused scFv and H2B-mCh-OrigTag; co-localization in the nucleus
T2 construct: not shown: Histone H2B, mCherry and the linkers between the parts
T2 peptide: MSLPGRWKPKM

[3] = target: T3, mCherry-H2B without HA tag (mCh-H2B) (UniProt P06899 1-126); assay: nuclear to cytoplasmic fluorescence ratio of FB-GFP in living U2OS cells lacking the HA tag
[4] = target: T4, mitoNEET (Mito) fused to mCherry and a C-terminal smHA tag (Mito-mCh-smHA) (Homo sapiens (Human), UniProt Q9NZ45 1-33); assay: live-cell imaging, U2OS cells, FB-GFP fluorescence at mitochondria over background
T4 construct: also called smHA tagged Mito
T4 peptide: YPYDVPDYA

[5] = target: T4, mitoNEET (Mito) fused to mCherry and a …; assay: live-cell imaging, U2OS cells; reference Mito-mCh-1×HA
[6] = target: T3, mCherry-H2B without HA tag (mCh-H2B); assay: nuclear to cytoplasmic fluorescence ratio of the GFP-fused scFv in living U2OS cells with mCh-H2B lacking the HA tag

B1: χ15F11^HIV chimeric anti-HIV protease scFv fused to GFP (scFv)
scFv: MAEVKLVESGGGLVKPGGSLKLSCAASGFTFSRFGMHWVRQTPEKRLEWVAYISSGSSTIYYADTVKGRFTISRDNAKNTLYLQMSSLRSEDTAIYYCARSGGIERYDGTYYVMDYWGQGTTLTVSSGGGGSGGGGSGGGGSDIVLTQSPASLTVSLGQRATISCRASESVDYYGKSFMNWYQQKPGQPPKLLIYAASNQGSGIPARFSGSGSGTDFTLNIHPVEEEDAATYYCQQSKEVPWTFGAGTKLEI
notes: also called 15F11-HIV-FB; anti-HIV protease frankenbody
Q: Does B1 bind [1]?
A: binds

Q: Does B1 bind [2]?
A: binds

B2: χ15F11^HA chimeric anti-HA scFv fused to mEGFP (HA frankenbody, FB-GFP), expressed in cells (scFv, not shown: large carriers)
scFv: MAEVKLVESGGGLVKPGGSLKLSCAASGFTFSSYGMSWVRQTPEKRLEWVATISRGGSYTYYPDSVKGRFTISRDNAKNTLYLQMSSLRSEDTAIYYCARRETYDEKGFAYWGQGTTLTVSSGGGGSGGGGSGGGGSDIVLTQSPASLTVSLGQRATISCKSSQSLLNSGNQKNYLTWYQQKPGQPPKLLIYWASTRESGIPARFSGSGSGTDFTLNIHPVEEEDAATYYCQNDNSHPLTFGAGTKLEIGGGGSGGGGSGGGGSGGGGSGGGGS
notes: also called 15F11-HA-FB; pCMV-15F11-HA-mEGFP
Q: Does B2 bind [3]?
A: no binding

Q: What about the “mitochondria to background fluorescent intensity ratio (Mito/Bg)” value [4] of the same binder?
A: 16.6 ratio

Q: And the “Mito/Bg ratio of smHA tagged Mito against 1×HA tagged Mito” value [5]?
A: 4.7 times

B3: χ2E2^HA chimeric anti-HA scFv fused to mEGFP (scFv, not shown: large carriers)
scFv: MAEVQLVESGGDLVKPGGSLKLSCAASGFTFSSYGMSWVRQTPDKRLEWVATISRGGSYTYYPDSVKGRFTISRDNAKNTLYLQMSSLKSEDTAMYYCARRETYDEKGFAYWGQGTSVTVSSGGGGSGGGGSGGGGSDIVLTQSPASLAVSLGQRATISCKSSQSLLNSGNQKNYLTWYQQKPGQPPKLLIYWASTRESGIPARFSGSGSGTDFTLNIHPVEEEDAATYYCQNDNSHPLTFGGGTKLEIGGGGSGGGGSGGGGSGGGGSGGGGS
notes: also called 2E2-HA-FB; pCMV-2E2-HA-mEGFP
Q: Does B3 bind [6]?
A: no binding
